Data on three variants can be found in IntAct's records for PubMed 20643958.

The labels stand for the following.
B1: DNA primase large subunit (Homo sapiens), P49643-1 (parent)
chain: MEFSGRKWRKLRLAGDQRNASYPHCLQFYLQPPSENISLIEFENLAIDRVKLLKSVENLGVSYVKGTEQYQSKLESELRKLKFSYRENLEDEYEPRRRDHISHFILRLAYCQSEELRRWFIQQEMDLLRFRFSILPKDKIQDFLKDSQLQFEAISDEEKTLREQEIVASSPSLSGLKLGFESIYKIPFADALDLFRGRKVYLEDGFAYVPLKDIVAIILNEFRAKLSKALALTARSLPAVQSDERLQPLLNHLSHSYTGQDYSTQGNVGKISLDQIDLLSTKSFPPCMRQLHKALRENHHLRHGGRMQYGLFLKGIGLTLEQALQFWKQEFIKGKMDPDKFDKGYSYNIRHSFGKEGKRTDYTPFSCLKIILSNPPSQGDYHGCPFRHSDPELLKQKLQSYKISPGGISQILDLVKGTHYQVACQKYFEMIHNVDDCGFSLNHPNQFFCESQRILNGGKDIKKEPIQPETPQPKPSVQKTKDASSALASLNSSLEMDMEGLEDYFSEDS

Variants of B1 are the subject of the first test. Conditions: with rfa2_human RPA2, P15927.
Chain of rfa2_human RPA2, P15927 (P15927 whole entry): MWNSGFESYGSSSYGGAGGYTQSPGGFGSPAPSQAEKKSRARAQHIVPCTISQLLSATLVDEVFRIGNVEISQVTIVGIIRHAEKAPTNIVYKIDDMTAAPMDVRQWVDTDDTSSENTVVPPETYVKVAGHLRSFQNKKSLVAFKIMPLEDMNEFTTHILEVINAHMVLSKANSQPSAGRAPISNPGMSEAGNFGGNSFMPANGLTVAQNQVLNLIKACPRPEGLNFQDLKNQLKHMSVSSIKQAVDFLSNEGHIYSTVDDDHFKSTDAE
As to R296E, the “effect of a mutation on the interaction” value is on record as “decreasing interaction”.

In the case of R302E, the “effect of a mutation on the interaction” value is recorded as “decreasing interaction”.

Turning to H299D, the “effect of a mutation on the interaction” value was “decreasing interaction”.

Another test covers variants of B1. Conditions: with rfa2_human RPA2, P15927. This is another data set of the same source.
For the variant R302E, the “effect of a mutation on the interaction” value is listed as “disrupting interaction”.
